Assay results published in patent publication US20220259294A1.

Key:
[1] = molecular target: IHF peptide of H. influenzae (Haemophilus influenzae); experiment: Kd at pH 4.5 (Octet biosensor per Example 1)
[2] = molecular target: IHF peptide of H. influenzae (Haemophilus influenzae); experiment: Kd at pH 6.5 (Octet biosensor per Example 1)
[3] = molecular target: IHF peptide of H. influenzae (Haemophilus influenzae); experiment: Kd at pH 5.5 (Octet biosensor per Example 1)
[4] = molecular target: IHF peptide of H. influenzae (Haemophilus influenzae); experiment: Kd at pH 7.5 (Octet biosensor per Example 1)

B1: TRL295 (antibody, V domains shown)
VH: QVQLVESGGGLVQPGGSLRLSCAASGFPFSSYAMSWVRQAPGKGLEWVSAISGNGADSYYADSVKGRFTTSRDKSKNTVYLQMNRLRAEDTAVYYCAKDMRRYHYDSSGLHFWGQGTLVTVSS
VL: DIELTQAPSVSVYPGQTARITCSGDALPKQYAYWYQQKPGQAPVVVIYKDSERPSGISERFSGSSSGTTVTLTISGVQAGDEADYYCQSVDTSVSYYVVFGGGTKLTVL
**Q.** What does the source list for B1?
**A.** Kd [1]: 3.7 nM; Kd [2]: 2.8 nM; Kd [3]: 2.8 nM; Kd [4]: 4.2 nM
